Measured values: publication PMC8246641
Ends that are not written are not given here.

Biological target: taxol-stabilized microtubules (MTs) (UniProt P02550)
Assay: co-sedimentation

B1: GST-ABS6^329–387 (DUF4005 domain of ABS6/AtIQD16, N-terminal GST tag) (domain or fragment)
chain: {GST}-RSASPRIPCSPSSMQPNYMSATESAKAKARTQSTPRRRPMTAKKRLCYAEEESLRSPSF
modifications: cysteine pairing not given here
A Kd of 0.996 µM was found for B1 in this work.
